Results from patent publication US20060287320A1, “Preparation of thioarabinofuranosyl compounds and use thereof” (Southern Research Institute, priority 1998, published 2006).

Tests used:
Assay in all cases: purified protein, by the assay type
[1] = substrate: Nc1ccn([C@H]2C[C@H](O)[C@@H](CO)O2)c(=S)n1; conditions: other: dCyd deaminase activity from human placenta, pH 7.4, mean and standard deviation from 3 experiments
Method: (§1) Reactions were carried out in solutions containing 20 mM potassium phosphate (pH 7.4), 100 mM KCl, various concentrations of radiolabeled nucleoside, and enzyme. The reactions were stopped with acid, the substrate was separated from the product by paper chromatography, and the radioactivity in each were determined. The kinetic constants were determined from linear double-reciprocal plots of 1/velocity versus 1/concentration of the substrate. The best line was determined by linear regression from at least 5 datum points, and the Km and Vmax were determined from the x and y intercepts. The data presented are the mean and standard deviation from 3 separate experiments.

[2] = substrate: Nc1ccn([C@H]2C[C@H](O)[C@@H](CO)O2)c(=O)n1; conditions: other: dCyd deaminase activity from human placenta, pH 7.4, mean and standard deviation from 3 experiments
Method: as §1

[3] = substrate: Nc1ccn([C@@H]2S[C@H](CO)[C@@H](O)[C@@H]2O)c(=O)n1
[4] = other: dCyd deaminase activity from human placenta, pH 7.4, mean and standard deviation from 3 experiments

Row | Protein | Km [1] [µM] | Vmax [1] [µmol/min/mg] | Km [2] [µM] | Vmax [2] [µmol/min/mg] | Km [3, 4] [µM] | Vmax [3, 4] [µmol/min/mg] | Km ([3]; other: cytidine deaminase, radioactive substrates) [µM]
1 | dCyd Deaminase Activity Isolated from Human Placenta (Homo sapiens) (protein) MAQKRPACTLKPECVQQLLVCSQEAKKSAYCPYSHFPVGAALLTQEGRIFKGCNIENACYPLGICAERTAIQKAVSEGYKDFRAIAIASDMQDDFISPCGACRQVMREFGTNWPVYMTKPDGTYIVMTVQELLPSSFGPEDLQKTQ | 111 ± 77 | 3.7e-05 | 23 ± 2.7 | 1.3e-05 | 2944 ± 1023 | 2.1e-05 | 
2 | cytidine deaminase (Homo sapiens) (protein) MAQKRPACTLKPECVQQLLVCSQEAKKSAYCPYSHFPVGAALLTQEGRIFKGCNIENACYPLGICAERTAIQKAVSEGYKDFRAIAIASDMQDDFISPCGACRQVMREFGTNWPVYMTKPDGTYIVMTVQELLPSSFGPEDLQKTQ |  |  |  |  |  |  | 2570
